From PMC4277747 (Journal of the American Chemical Society, 2014)

Biological target: the molecule itself
Experiment: AUC

Protein	stoichiometry N
KQLEKELKQLEKELQAIEKQLAQLQWKAQARKKKLAQLKKKLQA (designed binder) [APH fused to maltose binding protein (MBP)]	2

Biological target: the molecule itself
Experiment: AUC
Remark: another data set of the same source

Protein	stoichiometry N
KQLKQIEKRLKQIEKRLQAKEWEKAQLRKELQALRKKLAQLRE (designed binder) [APHvi (APH4) fused to maltose binding protein (MBP)]	2
KRKKQKRKRAKQLRKRLQALEWQLAQIRKELQAAEKEEAQIEE (designed binder) [APHiii (APH3) fused to maltose binding protein (MBP)]	2
KEEKQIEKELKQIEKELQAIEWRLAQLRKRLQALRKRKAQKRE (designed binder) [APHi fused to maltose binding protein (MBP)]	> 2
KEKKQLRKELKQLEKELQALRWRLAQIEKRLQAIRKRLAQKEE (designed binder) [APHiv fused to maltose binding protein (MBP)]	> 2

Biological target: the molecule itself
Experiment: AUC
Remark: another data set of the same source

Protein	MW (global fit)/MW (calc., expected dimer mass)
KQLKQIEKRLKQIEKRLQAKEWEKAQLRKELQALRKKLAQLRE (designed binder) [APHvi (APH4) fused to maltose binding protein (MBP)]	0.96
KRKKQKRKRAKQLRKRLQALEWQLAQIRKELQAAEKEEAQIEE (designed binder) [APHiii (APH3) fused to maltose binding protein (MBP)]	0.94
KEEKQIEKELKQIEKELQAIEWRLAQLRKRLQALRKRKAQKRE (designed binder) [APHi fused to maltose binding protein (MBP)]	1.7
KEKKQLRKELKQLEKELQALRWRLAQIEKRLQAIRKRLAQKEE (designed binder) [APHiv fused to maltose binding protein (MBP)]	1.23
